The data set addresses Lactoferrin (Lf) (bovine (cow's milk), UniProt P24627 20-708). Nature of the data set: fluorescence quenching (6-FAM); Tris-EDTA, no added ions; Lf 5 and 40 ug/mL; Tris-EDTA pH 8.0, no added salt, 25 C, 10 min; 90 uL of 50 nM aptamer + 100 uL Lf (0-100 ug/mL); Ex 485/Em 528 nm. Specificity section (alpha-La, beta-Lg, BSA). Conditions: protein: commercial; label: 3'-6-FAM.

Lactoferrin (Lf), sequence (P24627 20-708): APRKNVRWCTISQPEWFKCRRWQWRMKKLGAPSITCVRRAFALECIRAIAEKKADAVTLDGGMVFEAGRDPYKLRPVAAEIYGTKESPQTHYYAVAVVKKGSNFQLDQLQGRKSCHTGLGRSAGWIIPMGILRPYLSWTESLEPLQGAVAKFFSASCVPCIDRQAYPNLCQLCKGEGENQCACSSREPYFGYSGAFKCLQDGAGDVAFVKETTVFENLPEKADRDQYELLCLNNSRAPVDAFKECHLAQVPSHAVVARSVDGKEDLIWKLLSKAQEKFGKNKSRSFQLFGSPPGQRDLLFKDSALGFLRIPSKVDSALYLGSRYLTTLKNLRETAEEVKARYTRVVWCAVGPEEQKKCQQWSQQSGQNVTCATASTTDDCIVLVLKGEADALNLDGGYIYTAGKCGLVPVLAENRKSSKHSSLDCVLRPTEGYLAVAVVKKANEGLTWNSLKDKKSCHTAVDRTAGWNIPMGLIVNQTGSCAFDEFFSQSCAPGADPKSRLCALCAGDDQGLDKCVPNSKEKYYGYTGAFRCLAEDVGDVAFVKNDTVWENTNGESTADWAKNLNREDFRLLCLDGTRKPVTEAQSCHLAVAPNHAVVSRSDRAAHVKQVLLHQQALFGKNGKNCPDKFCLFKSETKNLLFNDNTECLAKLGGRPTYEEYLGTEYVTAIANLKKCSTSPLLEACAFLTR

For the molecule TGGTGCTGCCCCTAGTCTCCGGCTGATAGCTGCTTCTTGG (ssDNA) [Lf aptamer, 3'-6-FAM], the binding result is “binds”.

Values taken from publication PMC11243337, “Self-Responsive Fluorescence Aptasensor for Lactoferrin Determination in Dairy Products”.
